{"source": "patent US20220160760A1", "molecular_target": "carcinoembryonic antigen (CEA) (UniProt P06731)", "sequence (P06731 35-702 limits assumed)": "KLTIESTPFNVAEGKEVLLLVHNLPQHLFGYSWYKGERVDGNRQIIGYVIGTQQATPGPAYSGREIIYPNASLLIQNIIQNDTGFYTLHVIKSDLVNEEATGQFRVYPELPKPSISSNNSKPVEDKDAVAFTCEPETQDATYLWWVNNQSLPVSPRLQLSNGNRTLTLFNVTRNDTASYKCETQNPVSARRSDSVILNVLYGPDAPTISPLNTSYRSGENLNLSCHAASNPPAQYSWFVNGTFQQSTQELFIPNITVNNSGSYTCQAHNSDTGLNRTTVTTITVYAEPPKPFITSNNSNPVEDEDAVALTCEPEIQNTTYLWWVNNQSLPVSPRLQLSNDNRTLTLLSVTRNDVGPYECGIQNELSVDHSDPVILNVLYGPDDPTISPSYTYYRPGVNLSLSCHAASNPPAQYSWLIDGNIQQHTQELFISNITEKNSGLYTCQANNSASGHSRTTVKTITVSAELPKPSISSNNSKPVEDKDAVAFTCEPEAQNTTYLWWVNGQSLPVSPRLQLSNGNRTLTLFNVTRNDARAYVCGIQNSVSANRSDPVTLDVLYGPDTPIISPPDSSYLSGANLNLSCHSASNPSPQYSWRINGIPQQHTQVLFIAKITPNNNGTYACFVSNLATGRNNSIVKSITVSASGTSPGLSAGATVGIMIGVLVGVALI", "assay": "cell-based or functional assay", "data": [{"substance": "MFE23 CoStAR (MFE23.scFv fused to full length human CD28) (receptor)", "values": [{"measurement": "IL-2 secretion by ELISA, T-cells mixed with LoVo-OKT3 cells, average of three donors (non-transduced cells 0.80 ng/ml)", "value": 5, "unit": "ng/mL"}]}]}
